Laboratory results taken from US20030203464.

B1: Type I Rac-GEF (protein)
chain: MEYMPMEIRHDLEILQPEEIKLQEAMFELVTSEASYYKSLNLLVSHFMENERIRKILHPSEAHILFSNVLDVLAVSERFLLELEHRMEENIVISDVCDIVYRYAADHFSVYITYVSNQTYQERTYKQLLQEKAAFRELIAQLELDPKCRGLPFSSFLILPFQRITRLKLLVQNILKRVEERSERECTALDAHKELEMVVKACNEGVRKMSRTEQMISIQKKMEFKIKSVPIISHSRWLLKQGELQQMSGPKTSRTLRTKKLFHEIYLFLFNDLLVICRQIPGDKYQVFDSAPRGLLRVEELEDQGQTLANVFILRLLENADDREATYMLKASSQSEMKRWMTSLAPNRRTKFVSFTSRLLDCPQVQCVHPYVAQQPDELTLELADILNILDKTDDGWIFGERLHDQERGWFPSSMTEEILNPKIRSQNLKECFRVHKMDDPQRSQNKDRRKLGSRNRQ
B2: Type II Rac-GEF (protein)
chain: B1 chain

Chain of RhoA, P61586 (P61586 whole entry): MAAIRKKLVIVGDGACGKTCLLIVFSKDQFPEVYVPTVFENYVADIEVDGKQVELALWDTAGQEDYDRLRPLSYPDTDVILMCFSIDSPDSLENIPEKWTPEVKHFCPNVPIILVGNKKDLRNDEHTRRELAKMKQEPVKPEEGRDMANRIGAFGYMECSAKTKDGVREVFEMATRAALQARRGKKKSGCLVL
Chain of Cdc42, P60953 (P60953 whole entry, looked up): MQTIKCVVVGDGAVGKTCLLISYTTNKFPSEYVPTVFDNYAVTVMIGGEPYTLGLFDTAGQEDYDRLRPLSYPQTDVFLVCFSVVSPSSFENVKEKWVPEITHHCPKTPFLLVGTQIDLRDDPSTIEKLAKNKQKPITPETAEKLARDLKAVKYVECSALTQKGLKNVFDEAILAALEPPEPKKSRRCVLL

Protein	exchange activity on Rac1, RhoA and Cdc42 (Rac1, P63000)	exchange activity on Rac1, RhoA and Cdc42 (Cdc42, P60953)	exchange activity on Rac1, RhoA and Cdc42 (RhoA, P61586)
B1	Rac GEF is primarily selective for Rac1	but also displays activity against both RhoA and Cdc42	but also displays activity against both RhoA and Cdc42
B2	Rac GEF is primarily selective for Rac1	but also displays activity against both RhoA and Cdc42	but also displays activity against both RhoA and Cdc42
